Holding throughout (assay): SPR, Biacore T200; IL-2-Fc on CM5 chip, receptor injected; 1:1 model
For orientation: SPR reads the build-up and loss of mass on a sensor chip optically.

Assay [1] has as its target T1, IL2-RB (UniProt P14784 27-239, limits assumed).
T1 construct: Bought recombinant protein (Sino); also called CD122; IL-2Rβ
T1 sequence (looked up): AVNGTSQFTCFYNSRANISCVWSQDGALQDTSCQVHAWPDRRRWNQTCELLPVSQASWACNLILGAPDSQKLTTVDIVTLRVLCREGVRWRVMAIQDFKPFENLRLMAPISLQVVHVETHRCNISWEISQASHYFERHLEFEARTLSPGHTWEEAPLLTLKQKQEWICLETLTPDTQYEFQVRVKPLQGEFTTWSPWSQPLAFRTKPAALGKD
How it is done:
The affinity of IL-2 variants to IL-2 receptors, IL2-RA and IL2-RB, was analyzed using surface plasmon resonance (SPR). The IL-2 variants were diluted to a concentration of 2 ug/mL then immobilized on CM5 chip (GE Healthcare, Cat#BR-1005-30). The receptors IL-2RA or IL-2RB (Sino) were injected at concentrations 100, 50, 25, 12.5, 6.25, 3.125 nM with an association time of 150 seconds and dissociation time of 240 seconds. Biacore T200 (GE healthcare) was used to measure and analyze affinity of each IL-2 variant, where the results were analyzed with a 1:1 binding model by BIAevaluation software.

For assay [2], the target named is T2, IL2-RA (UniProt P01589 22-213, limits assumed).
T2 construct: Bought recombinant protein (Sino); also called CD25; IL-2Rα
T2 sequence (looked up): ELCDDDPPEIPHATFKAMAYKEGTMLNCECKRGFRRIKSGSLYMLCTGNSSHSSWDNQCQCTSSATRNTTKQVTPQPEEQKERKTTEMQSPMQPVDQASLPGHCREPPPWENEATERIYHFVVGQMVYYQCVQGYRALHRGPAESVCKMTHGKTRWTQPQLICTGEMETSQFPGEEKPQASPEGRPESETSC
The procedure: (§1) The affinity of additional IL-2 variants to IL-2 receptors, IL2-RA and IL2-RB, was analyzed using surface plasmon resonance (SPR). The IL-2 variants were diluted to a concentration of 2 ug/mL then immobilized on CM5 chip (GE Healthcare, Cat#BR-1005-30). Biacore T200 (GE healthcare) was used to measure and analyze affinity of each IL-2 variant, where the results were analyzed with a 1:1 binding model by BIAevaluation software, as described in Example 4.

Assay [3] has as its target T1, IL2-RB. How it is done:
as §1
This is another data set of the same source.

Where a chain is given by its changes, count along the chain named. Where two headings read alike, the source gives them in different places.

B1: IL2_V1 Fc fusion protein (Fc fusion)
chain: APTSSSTKKTQLQLEHLLLDLQMILNGINNYKNPKLTAMLTKKFYMPKKATELKHLQCLEEELKPLEEVLNLAQSKNFHLDPRDVVSNINVFVLELKGSETTFMCEYADETATIVEFLNRWITFCQSIISTLTGGGGSSNTKVDKRVEPKSCDKTHTCPPCPAPPVAGPSVFLFPPKPKDTLMISRTPEVTCVVVDVSHEDPEVQFNWYVDGVEVHNAKTKPREEQFNSTFRVVSVLTVVHQDWLNGKEYKCKVSNKGLPAPIEKTISKTKGQPREPQVYTLPPSREEMTKNQVSLTCLVKGFYPSDIAVEWESNGQPENNYKTTPPMLDSDGSFFLYSKLTVDKSRWQQGNVFSCSVMHEALHNHYTQKSLSLSPGK
In assay [1], B1 yielded a Kd of 66.6 nM, a koff of 0.0116 s⁻¹ and a kon of 174000 M⁻¹ s⁻¹.

B2: IL2_V4_F42A Fc fusion protein (Fc fusion)
chain: B1 chain with A38R, K42A, L80F, V86I
Consider B2, for which, in assay [2], the Kd was 6.75 nM, the koff came out at 0.000789 s⁻¹ and the kon was found to be 117000 M⁻¹ s⁻¹. In assay [3], this molecule registered a Kd of 9.43 nM, a koff of 0.00492 s⁻¹ and a kon of 522000 M⁻¹ s⁻¹.

B3: IL2_V2 Fc fusion protein (Fc fusion)
chain: B1 chain with L80F, D81R
Consider B3, for which, in assay [1], the affinity, expressed as Kd, was 124 nM; the dissociation rate constant (koff) is 0.0158 s⁻¹; the kon turned out to be 128000 M⁻¹ s⁻¹.

B4: IL2_V4_R38A Fc fusion protein (Fc fusion)
chain: B1 chain with K42F, L80F, V86I
As for B4, in assay [2], the Kd worked out at 3.31 nM, the koff is 0.00227 s⁻¹ and the kon is 685000 M⁻¹ s⁻¹. In assay [3], this molecule displayed a Kd of 7.33 nM, a koff of 0.00556 s⁻¹ and a kon of 759000 M⁻¹ s⁻¹.

B5: IL2_V4 Fc fusion protein (Fc fusion)
chain: B1 chain with L80F, V86I
In assay [1], B5 yielded a Kd of 29 nM, a koff of 0.00511 s⁻¹ and a kon of 176000 M⁻¹ s⁻¹. In assay [3], the Kd was found to be 8.99 nM, the koff stood at 0.00532 s⁻¹ and the kon worked out at 592000 M⁻¹ s⁻¹.

B6: IL2_V5 Fc fusion protein (Fc fusion)
chain: B1 chain with L80F, F92I
Regarding B6, in assay [1], the Kd came to 76.7 nM, the koff came to 0.00936 s⁻¹ and the on-rate constant (kon) is 122000 M⁻¹ s⁻¹.

B7: IL2_V4_R38A_F42A Fc fusion protein (Fc fusion)
chain: B1 chain with K42A, L80F, V86I
In assay [2], B7 had a Kd of 1230 nM, a koff of 0.00562 s⁻¹ and a kon of 4560 M⁻¹ s⁻¹. Further, in assay [3], the Kd was found to be 7.5 nM, the koff turned out to be 0.00504 s⁻¹ and the kon is 671000 M⁻¹ s⁻¹.

B8: supMD IL-2 Fc fusion protein (Fc fusion)
chain: B1 chain with L80F
Consider B8, for which, in assay [1], binding was characterised by a dissociation constant (Kd) of 29.5 nM, the koff is 0.004 s⁻¹ and the kon worked out at 136000 M⁻¹ s⁻¹.

B9: IL2_V3 Fc fusion protein (Fc fusion)
chain: B1 chain with L80F, V85L
Regarding B9, in assay [1], binding was characterised by a dissociation constant (Kd) of 218 nM, the koff was 0.0179 s⁻¹ and the kon is 82400 M⁻¹ s⁻¹.

As a reminder, the Kd is the free concentration of one partner at which half of the binding sites on the other are occupied at equilibrium, for simple one-to-one binding. A word on the koff: it is the first-order rate constant of dissociation. Lower therefore signals slow dissociation. As usually defined, the kon is the rate constant with which the complex forms.

The values above are taken from patent publication US20230242607A1 (EUTILEX, published 2023).
